In the supplement of paper PMC10567573:
± gives the standard deviation.

Assay: protein stability index of a GFP-peptide fusion (GPS, HEK-293T) (PSI 1-6); higher = more stable
Details: c terminus: a fixed tail appended
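Further: 24-mer peptide tiles fused after GFP, lentivirally expressed, FACS-sorted into six equal bins by GFP/DsRed ratio, decoded by Illumina sequencing, PSI is the read-weighted mean bin number.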

Sequence	protein stability index (treatment: DMSO)	protein stability index (treatment: MLN4924 1 uM, 8 h)
DAFPVHRVMMASASDYFKAMFTGG [KLHL13]	2.21 ± 0.38	2.26 ± 0.23
DARIGEAEAKRDAGIREAKAKQEK [FLOT1]	5.5 ± 0.19	5.37 ± 0.19
DCARRILAREGVAAFYKGYVPNML [SLC25A25]	2.12 ± 0.11	2.11 ± 0.29
DCMSRELVSLTSRNPDQRKESLCI [FBXO34]	3.93 ± 0.57	4.11 ± 0.32
DDLETMPDDLLTTLDDTCDLFAPL [ATF4]	5.01 ± 0.088	5.08 ± 0.16
DEEKQEYLNEYEAEKIEYNESMKA [SMARCE1]	5.5 ± 0.17	5.05 ± 0.36
DEKEQLIIPQVPLFNILAKFNGIT [USP39]	2.54 ± 0.3	2.57 ± 0.31
DFDDEKILIQHQKAKHFKCHICHK [ZNF207]	2.85 ± 0.31	3.31 ± 0.19
DGAAYIGNFDWVGNDFTQNAGTGL [PLD5]	3.3 ± 0.49	3.44 ± 0.14
DGMSGLAGVGLSGGAAGAGWCIFV [ELAVL3]	2.83 ± 1.1	2.69 ± 0.98
DGTSPLNTVERYNPQENRWHTIAP [KLHL20]	4.12 ± 0.26	4.26 ± 0.35
DGVKESTESSNTTIEDEDVKARKQ [CAMK2D]	5.59 ± 0.15	5.74 ± 0.09
DHFQKFLPTVGGQLGTAGQGFSYS [MYOZ1]	2.81 ± 0.13	2.79 ± 0.27
DHMRKKQHRKINPKNREYDRFYVI [ZNF277]	2.21 ± 0.29	2.03 ± 0.28
DKAMKKDGLVGMAIVGGMALGVAG [FIS1]	2.89 ± 0.16	2.67 ± 0.12
DKEGPSPKVEYVWRNIILMSLLHL [SCD]	3.11 ± 0.69	3.12 ± 0.4
DKEVRAASTEADKRLSRFDIEMSM [NLN]	4.39 ± 0.32	4.74 ± 0.32
DKQRKANESKGTRESWDSAKKLPP [ELOA2]	5.11 ± 0.19	5.06 ± 0.19

Sequence	protein stability index (treatment: DMSO)	protein stability index (treatment: MLN4924 1 uM, 8 h)
DKTPVLLTDYPVDLDEIAYFTWAS [MYORG]	2.64 ± 0.36	2.86 ± 0.4
DLDAWSILIREAQNQPIDKARKTY [CSTF3]	2.8 ± 0.34	3.04 ± 0.66
DLSRLVNCLTGEGEDTRLSASEMK [CIB1]	3.5 ± 0.38	3.86 ± 0.28
DNARLAVDDFRLKYENELALRQSV [KRT13]	3.92 ± 0.14	3.86 ± 0.18
DQEEIKTLERYMCSRFFIDFPDIL [TENT5C]	2.45 ± 0.16	2.56 ± 0.33
DQFLEDVRLQERTSGGLLSEAPNE [NOP53]	5.23 ± 0.13	5.38 ± 0.31
DQYSYSSLVMGSQTESALSKKLRA [LCOR]	3.63 ± 0.12	3.54 ± 0.27
DRDKRDFVSAGAAAGVAAAFGAPI [CLCN6]	4.12 ± 0.096	4.24 ± 0.19
DRDREEEENRLREELRQEWEAKQE [FAM50A]	5.45 ± 0.5	5.63 ± 0.16
DRESLCGASTSCLLPVQVVTEHPL [PCDHGC5]	4.16 ± 0.18	4.39 ± 0.27
DRLLVERIFAQYMVPHNLETTERM [PDS5B]	2.29 ± 0.31	2.17 ± 0.086
DRLRRNWPPSFLSEFRALQFSLML [SPNS1]	2.65 ± 0.6	2.31 ± 0.51
DRPMFMLQCAMEENCLSASAAQTD [LOXL2]	2.38 ± 0.52	1.94 ± 0.19
DRQELTYQELLRVCCCELGVNPDQ [ANKRD40]	3.24 ± 0.24	3.34 ± 0.36
DSACDESSCIPKAFGNPKFALQGL [IRX6]	3.62 ± 0.24	3.6 ± 0.23
DSGQYWPSIYHTMASPCSAMAYHH [WDFY1]	2.34 ± 0.2	2.38 ± 0.13
DTLDHIRALDRLQEVPHEGPMCDL [PPP2CA]	4.76 ± 0.24	4.8 ± 0.066
DTSMDGTEPPQNPVTPLGLQNEVP [SERTAD3]	5.4 ± 0.19	5.38 ± 0.34
